Values quoted from earlier work in paper PMC9161494.

Target: EGFR (Homo sapiens) (UniProt P00533)

Kd: 17.7 nM
Substance: PEPDG278D (from UniProt P12955)
